Assay results from patent US20230174604A1 (Innovent, published 2023).

Target: T1, IL-2Rα-Biotin (biotin-labeled human IL-2Rα, UniProt P01589 aa22-217, with C-terminal avi tag and His6 tag) (human, UniProt P01589 22-217, biotin on the avi tag (enzymatic labeling with BirA))
T1 construct: Expressed in HEK293-F, monomer peak collected; loaded on SA sensor or used to stain yeast; also called CD25; IL-2Rα receptor
T1 sequence: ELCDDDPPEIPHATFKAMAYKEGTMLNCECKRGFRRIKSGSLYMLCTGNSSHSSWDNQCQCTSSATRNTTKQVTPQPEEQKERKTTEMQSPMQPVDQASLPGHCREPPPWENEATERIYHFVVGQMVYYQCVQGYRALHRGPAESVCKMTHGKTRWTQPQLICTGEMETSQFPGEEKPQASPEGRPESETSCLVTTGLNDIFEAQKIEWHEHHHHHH
Experiment: flow cytometry, yeast-displayed IL-2 stained with IL-2Rα-Biotin
Procedure: Yeast cells comprising a single mutant sequence after sequencing were induced by shaking at 20° C. for 24 h to display IL-2^mutant, and stained together with their receptors IL-2Rα-Biotin and IL-2Rβ IH-Biotin, respectively. The specific steps were as follows: [0191] […] 1. 1×10⁶ cells from each sample were centrifuged to discard the supernatant, and washed with FACS buffer once for later use; [0193] 2. the cells were added to 100 μL of FACS buffer containing 50 nM IL-2Rα-Biotin and Anti Flag antibody, and incubated at room temperature for 30 min; [0194] 3. the mixture was centrifuged at 3000 rpm at 4° C. for 3 min, and washed twice with pre-cooled FACS buffer; [0195] 4. […] 5. after being washed twice with pre-cooled FACS buffer, the cells were resuspended in 100 μL of buffer, and the binding level of IL-2^mutant to IL-2Rα was assayed by a flow cytometer (BD, ACCURI C6). [0197] II. […] 1. 1×10⁶ cells from each sample were centrifuged to discard the supernatant, and washed with FACS buffer once for later use; [0199] 2. the cells were added to 100 μL of FACS buffer containing IL-2Rβ IH-Biotin (30 nM-100 nM) and Anti Flag antibody, and incubated at room temperature for 30 min; [0200] 3. following steps 3-5 described above, the binding level of IL-2′ to IL-2Rβ was assayed.

binding result: no binding (tested: 50 nM IL-2Rα-Biotin)
B1: IL-2^3X displayed on the surface of yeasts (ligand)
chain: APTSSSTKKTQLQLEHLLLDLQMILNGINNYKNPKLTDMLTFEFYMPKKATELKHLQCLERELKPLEEVLNLAQSKNFHLRPRDLISNINVIVLELKGSETTFMCEYADETATIVEFLNRWITFSQSIISTLT
notes: control in the flow cytometry staining
